Results on four molecules are retold here after patent publication US5480971A, “Peralkylated oligopeptide mixtures” (Houghten Pharmaceuticals, Inc., priority 1994, dated 1996).

One data set has as its system trypsin. Nature of the data set: Enzymatic susceptibility to trypsin (RP-HPLC, mass spectral analysis). To be noted: peptide 1.0 mg/ml, enzyme to peptide 1:50, 0.1M NH4HCO3 pH 7.8, room temperature. The format is in vitro ADME. As for the experimental part:
(§1) The stability of N-permethylated compounds to proteolysis was examined for two permethylated sequences, AlaGlyGlyPheLeu-NH2 (SEQ ID NO:37) and ArgGlyGlyPheLeu-NH2 (SEQ ID NO:38) with their non-permethylated equivalents used as controls. Treatment of these found compounds by trypsin and chymotrypsin was monitored by RP-HPLC and mass spectral analysis. Rapid cleavage of AGGFL-NH2 (SEQ ID NO:37) by chymotrypsin and RGGFL-NH2 (SEQ ID N0:38) by trypsin was observed (<1 hour), whereas less than 1 percent cleavage of the equivalent permethylated peptides was seen following overnight enzyme exposure.
(§2) The assays were performed in 1 ml 0.1M NH4 HCO3, pH 7.8, at room temperature for 16 hours at a peptide concentration of 1.0 mg/ml. Enzyme to peptide concentration was 1:50.

For the next data set, the system named is chymotrypsin. Put plainly: Enzymatic susceptibility to chymotrypsin (RP-HPLC, mass spectral analysis). The format is in vitro ADME. Conditions: peptide 1.0 mg/ml, enzyme to peptide 1:50, 0.1M NH4HCO3 pH 7.8, room temperature. Here is the method: as §1, §2
For data set [1] the following is noted: Merck Index, 10th ed.; cited from earlier work.
Data set [2] in a line: Enzymatic susceptibility to chymotrypsin (RP-HPLC, mass spectral analysis). The format is in vitro ADME. Conditions: chymotrypsin; overnight enzyme exposure (16 hours), room temperature, pH 7.8; read-out: cleavage by chymotrypsin. Here is the method: as §1, §2

Square brackets hold non-standard residues; d marks the D form. Ends that are not written are not given here. Peptide text beside a SMILES is read from it. * marks the point of attachment. NMeF = CN[C@@H](Cc1ccccc1)C(=O)O; X3 = C[C@@H](C(=O)*)[N+](C)(C)C; NMeL = CN[C@@H](CC(C)C)C(=O)O; Sar = CNCC(=O)O

In the case of “ArgGlyGlyPheLeu-NH2 (RGGFL-NH2) [non-permethylated equivalent used as control]”, the “time in which cleavage by trypsin was observed” value in the data set with trypsin is less than 1 h.
As to “AlaGlyGlyPheLeu-NH2 (AGGFL-NH2) [non-permethylated equivalent used as control, reference compound]”, the “time in which cleavage by chymotrypsin was observed” value with chymotrypsin is less than 1 h.
For the molecule `CC(=O)[C@H]1CC[C@H]2[C@@H]3CCC4=CC(=O)CC[C@]4(C)[C@H]3CC[C@]12C` [progesterone], in data set [1], the solubility in water result is reported as “insoluble in water”.
Turning to `CNC(=O)[C@H](CC(C)C)N(C)C(=O)[C@H](Cc1ccccc1)N(C)C(=O)CN(C)C(=O)CN(C)C(=O)[C@H](C)[N+](C)(C)C` [PerA-AGGFL] (X3-[Sar][Sar][NMeF][NMeL]-NHMe), the metabolised at 16 h, 1 mg/ml in data set [2] was less than 1%.
